Data from US12630850B2, “Enzymatic break down of chlorogenic acid in sunflower-containing products” (Chapman University, priority 2022, dated 2026).

Experiments:
[1] = HPLC quantification of CGA in sunflower flour cookies; assay type: biochemical; details: SFF cookies; 0.09 mg/g flour, pre- and direct treatment
Source text: (§1) Cookie formulations and baking conditions. The cookie dough formulation consisted of baking soda (2.2 g), salt (2.2 g), whole egg (46.8 g), maple syrup (76.3 g), vanilla extract (2.2 g), flour (145.8 g), and butter (87.5 g). CGA esterase treatments in SFF, utilized almond butter instead of SFB. The wet (sunflower or almond butter, maple syrup, eggs, and vanilla extract) and dry (flour, baking soda, and salt) ingredients were mixed separately and subsequently combined and mixed for 75 s with an electric hand mixer. The dough was rolled out and cut to the following dimensions: 6 mm thickness and 40 mm diameter. Cookies were baked for 7 min in a convection oven preheated to 149° C. (300° F.) and allowed to cool at room temperature for 10 min before further analysis.
Preparation of sunflower flour cookies with CGA esterase. […]
(§2) High-performance liquid chromatography (HPLC) quantification of phenolic content in sunflower cookies. […] The extract was filtered through 0.20 μm syringe filters and analyzed with an Agilent 1260 Infinity II system (Agilent Technologies) equipped with a quaternary pump (G7111B), vial sampler (G7129A), and diode array detector (HS G7117C). […] CGA and caffeic acid concentrations were detected at 320 nm and quantified using a standard curve between 0.00-0.10 mg ml^−1 CGA (y=172287x, R^2=0.994) and caffeic acid (y=248557x, R^2=0.967).

[2] = CGA esterase activity in the sunflower meal supernatant and pellet (HPLC); assay type: biochemical; details: for Pellet mg CA/g meal / Pellet mg CGA/g meal / Supernatant mg CA/g meal / Supernatant mg CGA/g meal: enzyme present
Source text: Sunflower meal and sunflower protein treatment with chlorogenic acid esterase. Sunflower seeds were ground using a KitchenAid coffee grinder in two 30 s increments and sieved through a 500 μm filter to make SFM. Two defatting methods were used: cold press and hexane extraction. To make cold pressed SFM, ground seeds were pressed in a Carver Hydraulic Unit Model 3912 3852-0 five times to a pressure of 9,000-10,000 psi. For hexane extracted SFM, fat was removed from ground seeds using a Soxhlet apparatus in 250 mL hexane for 18 h and subsequently dried using a Fischer Scientific Isotemp Oven Model 516G at 45° C. for 3 h. Cold pressed, hexane extracted, and undefatted SFM were then sieved through a 500 μm filter.
Chlorogenic acid esterase activity in the sunflower meal supernatant and pellet. SFM (1 g) that was cold pressed, hexane extracted, or undefatted was buffered in 10 mL of 50 mM HEPES, pH 8.0. CGA esterase was added to a final concentration of 0.756 μM (0.02 mg mL^−1). Untreated samples received a solution of 50 mM HEPES, pH 8.0 instead of CGA esterase. Samples treated with CGA esterase were allowed to sit for 10 min and subsequently centrifuged at 10,000 rpm for 10 min. The supernatant was filtered through a 0.2 μm filter and loaded onto an HPLC while the pellet was lyophilized for 20 h. After lyophilization, 10 mL of 70% ethanol was then added to the dried pellet for 1 h to extract CGA. The pellet was subsequently centrifuged at 10,000 rpm for 10 min. The supernatant was then filtered through a 0.2 μm filter and loaded onto an HPLC.
HPLC quantification of CGA and CA in sunflower meal and protein isolates. All solutions were diluted ten-fold in 0.1% formic acid in HPLC-grade water before analysis. Quantification of CGA and CA concentration was performed using an Agilent 1260 series HPLC instrument (Agilent Technologies) equipped with a quaternary pump, an automated sample injector, a diode array detector, and a 4.6 mm×150 mm Luna C18(2) column with a 5 μm particle size and 100 Å pore size (Phenomenex). The injection volume was 20 μL. To elute analytes, mobile phases composed of 0.1% formic acid in HPLC-grade water (A) and 0.1% formic acid in HPLC-grade acetonitrile (B) were used in a linear gradient. The gradient is as follows: 0 to 13% B in 1 min, up to 27% B at 8 min, up to 100% B at 8.5 min, isocratic at 100% B to 9.5 min, 100% B returned to 0% B at 9.6 min with 3 min post-time. The concentrations of CGA and CA were calculated from peak integration data based on 10-point standard curve that spanned a concentration range of 0 to 0.1 mg mL^−1.

[3] = Song & Baik, 2017; cited from earlier work
[4] = HPLC quantification of CGA in sunflower butter cookies; assay type: biochemical; details: SFB cookies; both levels, 1.72×10^−1 and 1.72×10^−2 mg/g butter
Source text: as §1
Preparation of sunflower butter cookies with chlorogenic acid/CGA esterase. […]
as §2

Effect of enzyme addition on CGA [1]: nearly complete elimination of CGA
Pellet mg CA/g meal ([2]; cold pressed SFM): 0.81 ± 0.11 mg CA/g meal
Pellet mg CGA/g meal ([2]; cold pressed SFM): 0.02 ± 0.00 mg CGA/g meal
Supernatant mg CA/g meal ([2]; cold pressed SFM): 3.33 ± 0.15 mg CA/g meal
Supernatant mg CGA/g meal ([2]; cold pressed SFM): 0.00 ± 0.00 mg CGA/g meal
CGA cleavage ([2]; defatted samples): > 99%
Pellet mg CA/g meal ([2]; hexane extracted SFM): 1.55 ± 0.14 mg CA/g meal
Pellet mg CGA/g meal ([2]; hexane extracted SFM): 0.03 ± 0.00 mg CGA/g meal
Supernatant mg CA/g meal ([2]; hexane extracted SFM): 3.77 ± 0.10 mg CA/g meal
Supernatant mg CGA/g meal ([2]; hexane extracted SFM): 0.00 ± 0.00 mg CGA/g meal
Pellet mg CA/g meal ([2]; undefatted SFM): 0.34 ± 0.03 mg CA/g meal
Pellet mg CGA/g meal ([2]; undefatted SFM): 0.11 ± 0.01 mg CGA/g meal
Supernatant mg CA/g meal ([2]; undefatted SFM): 1.52 ± 0.08 mg CA/g meal
Supernatant mg CGA/g meal ([2]; undefatted SFM): 0.00 ± 0.00 mg CGA/g meal
CGA cleavage ([2]; undefatted samples): ca. 96%
B1: CGA esterase: CGA esterase from L. helveticus (Genbank ID: WP_025283955.1, Uniprot ID: U6F2K7), expressed in Escherichia coli; the dimer is the active form (protein, listed as Lactobacillus helveticus)
chain: MSRITIERDGLTLVGDREEPFGEIYDMAIIMHGFAANRNTDLLRQIADDLRDENVASVRFDFNGHGESDGKFEDMTVCNEIADGKAILDYVRTDPHVRDIFLVGHSQGGVVASMLAGLYPDVVKKVVLLAPAAQLKDDALRSNTQGATYDPNHIPDWPLVGNKLGMKLGGFYLRTAQVLPIYEVSQCFTRPVSVIAGTNDQWDPKYAKKYDEVYENSELHMIPNADHRFSGGYKDMAADLTAQFLKPAF
Conversion of CGA into caffeic and quinic acid ([2]; SFM, in 10 min): ~100%
Km [3]: 153 µM
Vmax [3]: 0.5596 mM/min/mg
Decrease of CGA concentration [4]: 90-95%
